Here are results for five molecules from PMC11472163, “Crystal structure and nucleic acid binding mode of CPV NSP9: implications for viroplasm in Reovirales”.

Data set [1] addresses BmCPV1 NSP9^ΔC (1–286 amino acid residues, lacking residues 287–320), expressed in E. coli (Bombyx mori cypovirus 1 (BmCPV1)). Briefly: AUC.
The target is the same in data set [2]. Description: SEC; […]; 10 mM HEPES pH 7.5, 100 mM NaCl; […]. (In general: In gel filtration, larger molecules generally elute earlier.)
Data set [3] concerns the target T1, NSP9ΔC (Bombyx mori cypovirus 1 (BmCPV1), UniProt O72505 1-286). Briefly: EMSA; two sequential bands; 2:1 dimer:NA; […]; SEC: 10 mM HEPES pH 7.5, 100 mM NaCl. Conditions: protein: recombinant; chain copies: 2; label: 5' 6-FAM. (In general: In EMSA bound probe runs differently from free probe, usually more slowly.)
Data set [4] has as its target T1, NSP9ΔC. Description: EMSA; no significant difference from DNA; […]; SEC: 10 mM HEPES pH 7.5, 100 mM NaCl. Conditions: protein: recombinant; chain copies: 2; label: 5' 6-FAM.
The target of data set [5] is T1, NSP9ΔC. Description: EMSA; 1:1 NSP9ΔC dimer:ssDNA; […]; SEC: 10 mM HEPES pH 7.5, 100 mM NaCl. The settings on record: protein: recombinant; chain copies: 2; label: 5' 6-FAM (EMSA).

The term stoichiometry N denotes the number of molecules, sites or subunits per partner or assembly. Take “BmCPV1 NSP9^ΔC (1–286 amino acid residues, lacking residues 287–320), expressed in E. coli (domain or fragment)”: the stoichiometry N in data set [1] and in data set [2] was 2 throughout.

B1: 30 nt ssDNA (ssDNA)
DNA: AGTAAATCCCAGGCGCTCGGGTCGTTAGCC
In the case of B1, the binding result with NSP9ΔC [3] was “binds”.

B2: 15 nt ssRNA (ssRNA)
RNA: AGUAAGCUGUUAGCC
B2: in the data set with NSP9ΔC [4], the binding result is reported as “binds”.

B3: 30 nt ssRNA (ssRNA)
RNA: AGUAAAUCCCAGGCGCUCGGGUCGUUAGCC
Take B3: the binding result in the data set with NSP9ΔC [3] was “binds”.

B4: 15 nt ssDNA (ssDNA)
DNA: AGTAAGCTGTTAGCC
On to B4, for which the binding result with NSP9ΔC [5] was “binds”.
